The chains are these.
B2: murine anti-hepcidin MAb 583 (antibody, V domains shown)
VH: QIQLVQSGPELKKPGETVKISCKASGYTFTNYGMNWVKQAPGKGLKWMGWINTYTGEPTYADDFKGRFAFSLETSASTAYLQINNLKNEDTATYFCTTYATSWYWGQGTTLTVSS
VL: DIVLTQSPASLAVSLGQRATISCRASESVDSYGNSFMHWYQQKPGQPPKLLIYRASNLESGIPARFSGSGSRTDFTLTINPVEADDVATYYCQQSNEDLTFGGGTKLEIK
notes: Murine IgG from a hybridoma, purified on protein G (Protein A in some legends); detected with anti-mouse IgG1 (H+L); also called 5A3; hybridoma 5A3
B3: human hepcidin-20 peptide (peptide)
peptide: ICIFCCGCCHRSKCGMCCKT
notes: also called hep-20; hHepcidin-20

The target of test [1] is B2. Put plainly: C-ELISA, purified MAb 583 coated, hepcidin-25 against NT-biotin hepcidin-25 tracer (FIG. 16). The method, then: FIG. 16. […] The relative binding of the NT-biotin hepcidin-25 tracer (1 ng/well) relative to hepcidin-25, hepcidin-22, and hepcidin-20 was measured by ELISA. Four parameter logistical regression analysis was conducted using GraphPad Prism software to produce the curves shown.

Test [2] deals with T1, BAP070-01 human-mouse chimeric MAb 583.
T1 construct: tested as unpurified CHO cell supernatant (3650 ng/ml IgG); also called BAP070-01 chimera
Description: C-ELISA, BAP070-01 supernatant on Protein G, hepcidin-25 against NT-biotin hepcidin-25 tracer, 4-parameter fit. As to the method:
To capture BAP070-01 chimeric antibodies we coated microwell plates with Protein G (150 ng/well) overnight in carbonate coating buffer.
The plate was washed with TBST and one (1) ng/well of NT-biotin hepcidin-25 was mixed with different amounts (0-100 ng) of synthetic hepcidin-25 standard in TBST, 0.25% BLOTTO and added onto the plate to bind competitively. The plate was washed with TBST and SA-HRP (1:2500) added and allowed to bind for 1 hour.
The standard curve shown in FIG. 31 was generated using a four parameter logistical regression (Graphpad Prism; San Diego, Calif.).

Test [3] concerns the target B3. Put plainly: Western blot after non-reducing tricine SDS-PAGE.
For test [4], the target named is T2, NT-biotin hepcidin-25 (human, NT-biotin (biotin label; NT is not spelled out, taken as the N-terminus)).
T2 construct: also called NT-biotin hepcidin-25 tracer
T2 peptide: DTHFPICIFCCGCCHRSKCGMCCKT
Description: Biacore SPR, biotin peptide on chip, MAb 583 at 5 µg/ml.

Test [5] addresses T3, K18-biotin hepcidin-25 (human, biotin on K18).
T3 construct: also called K18-Biotin Hepcidin-25 tracer
T3 peptide: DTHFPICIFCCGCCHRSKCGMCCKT
The test is described as above.

In test [6] the target is T2, NT-biotin hepcidin-25. Put plainly: ELISA, 583 coated at 25 ng/well, tracer 1 ng/well, SA-HRP. The method, then: (§1) We used a microwell plate ELISA to assess antibody activity. […] The NT-biotin hepcidin-25 tracer was added across the plate at 1 ng/well in TBST, pH 8) containing 0.25% Blotto. The tracer was allowed to bind for 2 hours and the wells were washed in TBST, pH 8 with no Blotto. SA-HRP was added at 1:2500 for 30 minutes, the wells washed in TBST, and TMB substrate added for 10 minutes. Stop buffer was added the OD quantified on a spectrophotometer at 450 nm. An OD of 4 indicates the absorbance is beyond the analytic range of the spectrophotomer.

Test [7] has as its target T2, NT-biotin hepcidin-25. Put plainly: ELISA, 583 coated at 50 ng/well, tracer 1 ng/well, SA-HRP. The method, then:
as §1

Test [8] has as its target T2, NT-biotin hepcidin-25. Put plainly: ELISA, 583 coated at 100 ng/well, tracer 1 ng/well, SA-HRP. As to the method: as §1
Test [9] addresses T4, human hepcidin 10-25 peptide (human, disulfide (positions not given here); also: oxidized and refolded with proper cysteine bonds, pairing not given here).
T4 construct: also called hep 10-25; hHepcidin 10-25
T4 peptide: CCGCCHRSKCGMCCKT
Description: competition ELISA, MAb 583 coated, NT-biotin hepcidin-25 tracer.

The target of test [10] is T5, mouse hepcidin-1 peptide (mouse).
T5 construct: also called murine hepcidin-1; mouse hepcidin-25
T5 peptide: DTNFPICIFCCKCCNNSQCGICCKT
Described as above.

Test [11] concerns the target T2, NT-biotin hepcidin-25. Description: ELISA, 583 coated at 12.5 ng/well, tracer 1 ng/well, SA-HRP. As to the method: as §1
Test [12] addresses T2, NT-biotin hepcidin-25. Description: Biacore SPR, biotin peptide on neutravidin chip, MAb 583 at 24 µg/ml. The method, then: (§2) Biotinylated hepcidin peptides (NT-biotin-hepcidin-25, K18-biotin-hepcidin-25 and K24-biotin-hepcidin-25) were immobilized in flow cells 2-4 (one peptide species per flow cell) by injecting individual peptides at a concentration of 200 μg/ml at a flow rate of 5 μl/min, for 20 min.
(§3) After 3 minutes, injection was stopped and dissociation was followed for 6 min. Regeneration was performed by injecting 10 mM glycine HCl, pH 1.5 at a flow rate of 10 μl/min for 1 min.

The target in test [13] is T3, K18-biotin hepcidin-25. The description is as above. As to the method:
as §2, §3

Test [14] has as its target T6, K24-biotin hepcidin-25 (human, biotin on K24).
T6 construct: also called K24-biotin hepcidin-25 tracer
T6 peptide: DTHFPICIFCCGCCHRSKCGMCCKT
The test is described as above. As to the method: as §2, §3

The target of test [15] is B2. Description: competition ELISA, MAb 583 coated, NT-biotin hepcidin-25 tracer.

Where no end group is shown, it is not given here. A value given as a limit tells only on which side of the number the result lay.

B1: human hepcidin-25 (synthetic) (peptide)
peptide: DTHFPICIFCCGCCHRSKCGMCCKT
notes: Synthetic, biologically active 25 aa peptide; also called hep-25; Hep-25
For the molecule B1, the EC50 in test [1] is at most 0.005 µg/mL; in test [2], 0.054 µg/mL.

B2: the results for the binding result in [3], in [9] and in test [10] were “binds”, “no binding (tested: up to 2000 ng/ml)” and “no binding (tested: up to 2000 ng/ml)”, respectively. In addition, the Kd in [4] is about 0.018 nM; in test [5], about 0.0075 nM; in test [12] it was 0.0516 nM; in test [13], 0.878 nM; in test [14], 5.54 nM. In addition, the “OD 450 nm” value in [6], in [7], in test [8] and in test [11] was at least 4 OD each time. Further, the Ka stood at 1.94e+10 M⁻¹ in [12], 1.14e+09 M⁻¹ in test [13] and 1.8e+08 M⁻¹ in [14]. Further, the values for the Req in test [12], in test [13] and in test [14] were 78.8 RU, 126 RU and 63.1 RU, respectively. Further, the results for the kobs in test [12], in test [13] and in test [14] were 0.00977 s⁻¹, 0.0102 s⁻¹ and 0.0086 s⁻¹, respectively. Further, the values for the koff in test [12], in test [13] and in [14] were 3.15e-06 s⁻¹, 5.59e-05 s⁻¹ and 0.000288 s⁻¹, respectively. For the same molecule, the kon worked out at 61100 M⁻¹ s⁻¹ in test [12], 63700 M⁻¹ s⁻¹ in test [13] and 52000 M⁻¹ s⁻¹ in [14].

In the case of B3, in test [15], the binding result is listed as “binds”.

(Values after patent US20170283495A1 (published 2017).)
